According to article PMC7013354, “Selection and Characterization of CSFV-Specific Single-Domain Antibodies and Their Application along with Immunomagnetic Nanobeads and Quantum Dots” (BioMed Research International, 2020):

B1: recombinant sdAbE2-1 (VHH)
VHH: QVQLLESGGGLVQPGGSLRLSCAASGYSFIDKTMAWVRQAPGKGLEWVSAIRMHNGSTYYADSVKGRFTISRDNSKNTLYLQMNSLRAEDTAVYYCARLSRRIQAKDKAKLKYWGQGTLVTVSS
notes: also called sdAdE2-1; sdAbE2s
B2: QD-sdAbE2-1 probe (VHH)
VHH: B1 VHH
notes: also called QD605-labeled sdAbE2-1; QDs-sdAbE2-1
B3: AF488-sdAbE2-2 probe (VHH)
VHH: DVQLVESGGGLVQAGGSLRLSCTASGFTFDDYAMAWFRQPPGKEREGVSCISSSGGSTWYADSVKGRFTVSRDNAKNTLYLQMNSLKPEDTAMYYCAADWGRLCVVRGPRNEYKYSGQGTQVTVSS
notes: also called AF488-labeled sdAbE2-2
B4: recombinant sdAbE2-2 (VHH)
VHH: B3 VHH
notes: also called sdAdE2-2; sdAbE2s

How the values were obtained:
Conditions in all cases: one partner purified
[1] = molecular target: T1, E2 of CSFV in infected ST cells and on CSFV virions (Classical swine fever virus, C-strain, UniProt Q96891, strain); assay: pull-down
T1 construct: also called E2 of CSFV in ST cells

[2] = molecular target: T1, E2 of CSFV in infected ST cells and on …; assay: immunostaining of cells or tissue
[3] = molecular target: T1, E2 of CSFV in infected ST cells and on …; assay: far-Western, overlay or dot blot

Binder	binding result [2]	further results
B1		binding result [1]: binds
B2	binds	
B3	binds	
B4		binding result [3]: binds
